Measured values from patent publication US20220363763A1 (ABL BIO, published 2022).
One block for each binder: values may come before it.

How the values were obtained:
[1] = molecular target: T1, recombinant human LAG-3-ECD-human IgG1 fusion protein (human, UniProt P18627 23-450, biotin-labeled in the MHC class II blocking assays); test: ELISA on coated D1-D4 huFc; EC50 table has no unit, x axis Ab(nM)
T1 construct: extracellular domain; also called LAG-3-huFc; LAG-3-ECD-huFc; not shown: human IgG1 Fc
T1 sequence (looked up): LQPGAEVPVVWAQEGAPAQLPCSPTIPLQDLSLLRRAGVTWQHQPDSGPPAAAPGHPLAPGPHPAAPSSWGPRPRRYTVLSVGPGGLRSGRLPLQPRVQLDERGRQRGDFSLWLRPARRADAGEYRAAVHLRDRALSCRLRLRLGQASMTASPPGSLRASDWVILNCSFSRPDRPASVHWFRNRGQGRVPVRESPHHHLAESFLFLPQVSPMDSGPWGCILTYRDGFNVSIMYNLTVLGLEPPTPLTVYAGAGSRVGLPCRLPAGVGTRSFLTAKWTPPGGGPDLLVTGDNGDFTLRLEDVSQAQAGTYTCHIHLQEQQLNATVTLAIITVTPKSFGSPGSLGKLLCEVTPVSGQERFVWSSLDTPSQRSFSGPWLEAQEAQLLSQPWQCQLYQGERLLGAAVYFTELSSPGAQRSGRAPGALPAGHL
Experimental: Briefly, D1-D4 huFc or ΔD1-D2 huFc was coated at 0.5 μg/ml overnight and then blocked by 5% BSA in PBS. The serially diluted antibodies (starting from 1 μg/ml and 1:3 serial dilution for 10 doses) were incubated with the coated antigen for 1 hr at room temperature. The resulting plates were washed with PBS/T and incubated with goat anti-mouse IgG-HRP for 1 h at room temperature. The plates were developed with TMB substrate and analyzed by spectrophotometer at OD 450-630 nm.

[2] = molecular target: T1, recombinant human LAG-3-ECD-human IgG1 …; test: flow cytometry; blocking of biotin-LAG-3-ECD-huFc binding to MHC class II on Raji cells
Experimental: To evaluate the ability of anti-LAG-3 antibodies to block the binding of sLAG-3 to MHC class II receptor, an in vitro binding assay was designed using biotin-labeled LAG-3-ECD-huFc fusion proteins and Raji cells expressing MHC class II receptor. […] The antibody mixture was then added to FcR blocked Raji cells and incubated for 30 min on ice. Cells were then washed with FACS buffer and subsequently stained with streptavidin PE for 30 min on ice and subsequently washed once with FACS buffer. Labeled cells were evaluated for fluorescence intensity by flow cytometry in a BD FACSCalibur™.

[3] = molecular target: T1, recombinant human LAG-3-ECD-human IgG1 …; test: ELISA on coated human LAG3 ECD-Fc; EC50 table has no unit, x axis Ab(nM)
Experimental: (§1) To evaluate the capability of the anti-LAG-3 antibodies to bind to human, rat, and mouse LAG3 the antibodies identified in Example 2.1 were evaluated for their binding property through ELISA. The human, rat and mouse LAG3 ECD-Fc protein were coated to ELISA plate at 1 μg/ml with 100 μl/well. Antibodies from Example 1 were serially diluted with ELISA diluent buffer. […] The resulting plates were washed and then labeled with anti-human IgG(Fab)-HRP antibody. The S31 can only bind to human LAG3. The S27 and T99 can bind to human LAG3 and rat/mouse LAG3 with lower potency. The S119 antibody can bind to human, rat and mouse LAG3 at high potency (FIGS. 22A-22D).

rat LAG3 ECD-Fc protein [4] = molecular target: T2, rat LAG3 ECD-Fc protein (rat, UniProt Q5BK54 24-442); test: ELISA on coated rat LAG3 ECD-Fc; EC50 table has no unit, x axis Ab(nM)
T2 construct: extracellular domain; not shown: Fc part
T2 sequence (looked up): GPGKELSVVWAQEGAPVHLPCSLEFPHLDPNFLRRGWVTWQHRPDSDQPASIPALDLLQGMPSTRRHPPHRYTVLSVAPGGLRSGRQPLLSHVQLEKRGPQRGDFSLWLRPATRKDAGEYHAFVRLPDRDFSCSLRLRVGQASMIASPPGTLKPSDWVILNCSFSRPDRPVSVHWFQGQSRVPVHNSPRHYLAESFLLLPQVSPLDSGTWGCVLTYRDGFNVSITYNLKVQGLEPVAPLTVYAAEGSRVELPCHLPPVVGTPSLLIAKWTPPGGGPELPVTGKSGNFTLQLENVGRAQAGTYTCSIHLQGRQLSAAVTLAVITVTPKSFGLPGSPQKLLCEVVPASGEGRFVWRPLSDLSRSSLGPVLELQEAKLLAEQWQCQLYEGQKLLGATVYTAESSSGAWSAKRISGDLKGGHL
Experimental: as §1

[5] = molecular target: T1, recombinant human LAG-3-ECD-human IgG1 …; test: flow cytometry; blocking of biotin-LAG-3-ECD-huFc binding to MHC class II on Raji cells; remark: listed apart in the source
Experimental: (§2) To evaluate the ability of anti-LAG-3 antibodies to block the binding of sLAG-3 to MHC class II receptor, an in vitro binding assay was designed using biotin-labeled LAG-3-ECD-huFc fusion proteins and Raji cells expressing MHC class II receptor. Antibodies from Example 1 were serially diluted from 20 μg/mL with FACS buffer and pre-incubated with 6 μg/mL of biotin-LAG-3-ECD-huFcc for 30 min at room temperature. The antibody mixture was then added to FcR blocked Raji cells and incubated for 30 min on ice. Cells were then washed with FACS buffer and subsequently stained with streptavidin PE for 30 min on ice and subsequently washed once with FACS buffer. Labeled cells were evaluated for fluorescence intensity by flow cytometry in a BD FACSCalibur™.

[6] = molecular target: T3, recombinant his-tag human LAG3-ECD protein (human, UniProt P18627 23-450); test: SPR Biacore T200, antibody captured by anti-human Fc, LAG3-ECD-his injected
T3 construct: extracellular domain; not shown: his tag
T3 sequence (looked up): T1 sequence (looked up)
Experimental: The binding of the S20, S24, S27, S31, S87, S119, S120, S128, S136, S161 and T99 antibodies to recombinant his-tag human LAG3-ECD protein was examined by Biacore T200 using a capture method. Anti-LAG3 antibodies were captured using anti-human Fc antibody. The anti-human Fc antibody was coated on chip. Serial concentrations of his-tag human LAG3-ECD protein (0-4 nM) were injected over capture antibodies at the flow rate of 30 μl/min. The dissociation phase was 900 s or 550 s. The Biacore results for the anti-LAG3 antibodies have shown that these anti-LAG3 antibodies are high affinity binder to human LAG3.

[7] = molecular target: T4, mouse LAG3 ECD-Fc protein (mouse, UniProt Q61790 24-442); test: ELISA on coated mouse LAG3 ECD-Fc; EC50 table has no unit, x axis Ab(nM)
T4 construct: extracellular domain; not shown: Fc part
T4 sequence (looked up): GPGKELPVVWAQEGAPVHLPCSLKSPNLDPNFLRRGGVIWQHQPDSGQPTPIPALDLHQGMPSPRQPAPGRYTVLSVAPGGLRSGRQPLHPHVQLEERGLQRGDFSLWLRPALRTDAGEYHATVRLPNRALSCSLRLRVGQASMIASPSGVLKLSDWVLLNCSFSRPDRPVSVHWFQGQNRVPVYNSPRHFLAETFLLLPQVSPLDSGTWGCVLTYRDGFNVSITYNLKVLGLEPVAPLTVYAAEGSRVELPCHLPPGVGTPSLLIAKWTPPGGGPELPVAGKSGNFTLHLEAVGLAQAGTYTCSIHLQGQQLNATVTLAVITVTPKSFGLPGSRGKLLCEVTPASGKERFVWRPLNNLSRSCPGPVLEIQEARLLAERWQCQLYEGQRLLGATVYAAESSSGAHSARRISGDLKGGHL
Experimental: as §1

rat LAG3 ECD-Fc protein [8] = molecular target: T2, rat LAG3 ECD-Fc protein; test: ELISA on coated rat LAG3 ECD-Fc; EC50 table has no unit, x axis Ab(nM); fit value of a flat curve
Experimental: as §1

[9] = molecular target: T1, recombinant human LAG-3-ECD-human IgG1 …; test: flow cytometry; blocking of biotin-LAG-3-ECD-huFc binding to MHC class II on Raji cells; the curve ends at about 20 nM without a lower plateau
Experimental: as §2

[10] = molecular target: T4, mouse LAG3 ECD-Fc protein; test: ELISA on coated mouse LAG3 ECD-Fc; EC50 table has no unit, x axis Ab(nM); fit value of a flat curve
Experimental: as §1

EC50 [1]: 0.0979 nM | IC50 [2]: 21.4 nM
B1: 147H mouse monoclonal antibody (antibody, V domains shown)
VH: QVQLQQSGSELVRPGTSVKISCKASGYTFTNYWLGWIKQRPGHGLEWIGDIYPGGDYINYNEKFKGKATLSADTSSSTAYMQLSSLTSEDSAVYFCARPNLPGDYWGQGTSVTVSS
VL: DIVMTQAAFSNPVTLGTSASISCRSSKSLLHSNGITYLYWYLQKPGQSPQLLIYQVSNLASGVPGRFSGSGSGTDFTLRISRVEAEDVGVYYCAQNLELPWTFGGGTKLEIK
notes: Mouse hybridoma antibody

EC50 [3]: 0.0321 nM | EC50 (rat LAG3 ECD-Fc protein [4]): 0.0387 nM | IC50 [5]: 9.29 nM | Kd [6]: 0.00687 nM | koff [6]: 0.000149 s⁻¹ | kon [6]: 2.17e+07 M⁻¹ s⁻¹ | EC50 [7]: 0.0724 nM
B2: NLAG3-HDB169-S119 (antibody, human IgG1, V domains shown)
VH: QVQLVQSGAEVKKPGSSVKVSCKASGGTFSSYAISWVRQAPGQGLEWMGGIIPIFGTANYAQKFQGRVTITADESTSTAYMELSSLRSEDTAVYYCAASTLRVPNPPYWGQGTLVTVSS
VL: EIVLTQSPGTLSLSPGERATLSCRASQSVSSYLAWYQQKPGQAPRLLIYGISSRATGIPDRFSGSGSGTDFTLTISSLQPEDFATYYCQQANNFPLTFGGGTKLEIKR
notes: Short label tied by its unique suffix

EC50 [3]: 0.279 nM | EC50 (rat LAG3 ECD-Fc protein [8]): ~271000 nM | IC50 [9]: 82.6 nM | EC50 [10]: 119 nM | Kd [6]: 0.03 nM | koff [6]: 6.25e-05 s⁻¹ | kon [6]: 2.08e+06 M⁻¹ s⁻¹
B3: NLAG3-HDB169-S31 (antibody, human IgG1, V domains shown)
VH: QVQLVQSGAEVKKPGSSVKVSCKASGGTFSSYAISWVRQAPGQGLEWMGGIIPIFGTANYAQKFQGRVTITADESTSTAYMELSSLRSEDTAVYYCARDAGPVGYYGMDVWGQGTTVTVSS
VL: AIRMTQSPSTLSASVGDRVTITCRASQGIAGWLAWYQQKPGKAPKLLIYAASSLQSGVPSRFSGSASGTDFTLTISNLQPEDFATYYCQQAKSFPLTFGGGTKVEIKR
notes: as for B2
